Test results published in US20220064329A1 (Novo Nordisk, published 2022).
Substitutions are numbered along the chain they refer to.

Key:
Test in all cases: SPR, Biacore T200, 25 C; FVII(a) variant captured on anti-Gla Ab 4F6, mAb0842(OA) injected
[1] = target: T1, FVII(a) variant R392A (human, UniProt P08709 61-466)
T1 construct: hFVII alanine variant in cell culture supernatant
T1 sequence: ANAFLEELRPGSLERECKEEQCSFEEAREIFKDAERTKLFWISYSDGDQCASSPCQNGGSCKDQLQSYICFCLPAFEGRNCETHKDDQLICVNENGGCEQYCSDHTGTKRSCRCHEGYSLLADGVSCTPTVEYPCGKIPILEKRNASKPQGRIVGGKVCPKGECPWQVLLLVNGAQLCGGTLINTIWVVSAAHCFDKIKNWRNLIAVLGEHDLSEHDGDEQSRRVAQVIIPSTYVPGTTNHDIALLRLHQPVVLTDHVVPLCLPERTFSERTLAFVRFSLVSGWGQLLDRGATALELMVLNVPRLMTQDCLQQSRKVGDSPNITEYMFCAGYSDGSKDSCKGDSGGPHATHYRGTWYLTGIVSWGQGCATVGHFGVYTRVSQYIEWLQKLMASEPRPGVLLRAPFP
Experimental: (§1) The running buffer was prepared by diluting 10-fold the 10×HBS-P buffer (supplied by GE Healthcare) and supplemented with 1 mg/ml BSA and 5 mM CaCl2 to give 10 mM HEPES, 150 mM NaCl, 0.05% v/v Polysorbate 20, pH 7.4, 5 mM CaCl2, 1 mg/ml bovine serum albumin (BSA). […] Regeneration of the chip was achieved using 10 mM HEPES, 150 mM NaCl, 20 mM EDTA, 0.05 v/v Polysorbate 20, pH 7.4. Binding data were analysed according to a 1:1 Kinetic model and steady state analysis using BiaEvaluation 4.1 supplied by the manufacturer (Biacore AB, Uppsala, Sweden). Wherever possible, ka, kd and KD values from 1:1 kinetic fitting model are reported. […] An amino acid residue is considered a hot-spot residue if substitution of that amino acid residue with alanine results in an affinity reduction of ten (10) fold or more relative to the wild type.

[2] = target: T2, FVII(a) variant R113A (human, UniProt P08709 61-466)
T2 construct: hFVII alanine variant in cell culture supernatant
T2 sequence: T1 sequence with R113A, A392R
Experimental: as §1

[3] = target: T3, FVII(a) variant H115A (human, UniProt P08709 61-466)
T3 construct: hFVII alanine variant in cell culture supernatant
T3 sequence: T1 sequence with H115A, A392R
Experimental: as §1

[4] = target: T4, FVII(a) variant E394A (human, UniProt P08709 61-466)
T4 construct: hFVII alanine variant in cell culture supernatant
T4 sequence: T1 sequence with A392R, E394A
Experimental: as §1

[5] = target: T5, FVII(a) variant N184A (human, UniProt P08709 61-466)
T5 construct: hFVII alanine variant in cell culture supernatant
T5 sequence: T1 sequence with N184A, A392R
Experimental: as §1

Kd [1]: 43.4 nM | Kd [2]: 0.29 nM | Kd [3]: 8.16 nM | Kd [4]: 0.79 nM | Kd [5]: 1.91 nM
B1: mAb0842(OA) (antibody, human IgG4 S228P, kappa)
heavy: QVQLQESGPGLVKPSQTLSLTCTVSGYSISSDSAWSWIRQPPGKGLEWIGYIQYSGSTNYNPSLKSRVTISRDTSKNQFSLKLSSVTAADTAVYYCARSVNYYGNSFAVGYWGQGTLVTVSSASTKGPSVFPLAPCSRSTSESTAALGCLVKDYFPEPVTVSWNSGALTSGVHTFPAVLQSSGLYSLSSVVTVPSSSLGTKTYTCNVDHKPSNTKVDKRVESKYGPPCPPCPAPEFLGGPSVFLFPPKPKDTLMISRTPEVTCVVVDVSQEDPEVQFNWYVDGVEVHNAKTKPREEQFNSTYRVVSVLTVLHQDWLNGKEYKCKVSNKGLPSSIEKTISKAKGQPREPQVYTLPPSQEEMTKNQVSLSCAVKGFYPSDIAVEWESNGQPENNYKTTPPVLDSDGSFFLVSRLTVDKSRWQEGNVFSCSVMHEALHNHYTQKSLSLSLGK
light: EIVLTQSPATLSLSPGERATLSCRASQGISDYLHWYQQKPGEAPRLLIKYTSQPATGIPARFSGSGSGTDFTLTISSLEPEDFAVYYCQNGHSFPLTFGQGTKLEIKRTVAAPSVFIFPPSDEQLKSGTASVVCLLNNFYPREAKVQWKVDNALQSGNSQESVTEQDSKDSTYSLSSTLTLSKADYEKHKVYACEVTHQGLSSPVTKSFNRGEC
chain: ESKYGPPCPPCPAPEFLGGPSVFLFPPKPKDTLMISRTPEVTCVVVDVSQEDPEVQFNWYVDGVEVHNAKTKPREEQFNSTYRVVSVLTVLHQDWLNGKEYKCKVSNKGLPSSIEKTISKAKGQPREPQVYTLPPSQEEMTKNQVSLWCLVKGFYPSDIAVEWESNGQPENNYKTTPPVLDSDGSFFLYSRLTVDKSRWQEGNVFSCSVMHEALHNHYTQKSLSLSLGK
notes: also called monovalent humanized 11F2 antibody; one-armed anti-FVII(a) antibody
